Experimental data reported in publication PMC11130540, “Does Acinetobacter calcoaceticus glucose dehydrogenase produce self-damaging H2O2?” (Bioscience Reports, 2024).

Target: the molecule itself
Assay: crystal structure; holo-sGDH (around 10 mg/ml) reconstituted with PQQ before crystallization; hanging drop vapor diffusion at 20°C, 20% (w/v) PEG 6000, 100 mM TRIS pH 8.0, with 2 mM zinc chloride (wild-type) or 200 mM lithium chloride (mutants); two monomers in the asymmetric unit

Protein | stoichiometry N
soluble glucose dehydrogenase (sGDH) from Acinetobacter calcoaceticus, wild-type, holo form (enzyme, UniProt P13650 25-478, looked up, soluble glucose dehydrogenase (sGDH) of Acinetobacter calcoaceticus, UniProt P13650; native open reading frame on plasmid pGP492; printed number + 24 in P13650; Holo enzyme with the prosthetic group PQQ (found cleaved in the crystals) and calcium ions; No tag is named; also called sGDH WT; WT) DVPLTPSQFAKAKSENFDKKVILSNLNKPHALLWGPDNQIWLTERATGKILRVNPESGSVKTVFQVPEIVNDADGQNGLLGFAFHPDFKNNPYIYISGTFKNPKSTDKELPNQTIIRRYTYNKSTDTLEKPVDLLAGLPSSKDHQSGRLVIGPDQKIYYTIGDQGRNQLAYLFLPNQAQHTPTQQELNGKDYHTYMGKVLRLNLDGSIPKDNPSFNGVVSHIYTLGHRNPQGLAFTPNGKLLQSEQGPNSDDEINLIVKGGNYGWPNVAGYKDDSGYAYANYSAAANKSIKDLAQNGVKVAAGVPVTKESEWTGKNFVPPLKTLYTVQDTYNYNDPTCGEMTYICWPTVAPSSAYVYKGGKKAITGWENTLLVPSLKRGVIFRIKLDPTYSTTYDDAVPMFKSNNRYRDVIASPDGNVLYVLTDTAGNVQKDDGSVTNTLENPGSLIKFTYKAK | 2
soluble glucose dehydrogenase (sGDH) from Acinetobacter calcoaceticus, Y343F mutant, holo form (enzyme, soluble glucose dehydrogenase (sGDH) of Acinetobacter calcoaceticus, UniProt P13650, with Y343F; Holo enzyme with PQQ (found cleaved in the crystals) and calcium ions; No tag is named; also called sGDH Y343F; single mutant) DVPLTPSQFAKAKSENFDKKVILSNLNKPHALLWGPDNQIWLTERATGKILRVNPESGSVKTVFQVPEIVNDADGQNGLLGFAFHPDFKNNPYIYISGTFKNPKSTDKELPNQTIIRRYTYNKSTDTLEKPVDLLAGLPSSKDHQSGRLVIGPDQKIYYTIGDQGRNQLAYLFLPNQAQHTPTQQELNGKDYHTYMGKVLRLNLDGSIPKDNPSFNGVVSHIYTLGHRNPQGLAFTPNGKLLQSEQGPNSDDEINLIVKGGNYGWPNVAGYKDDSGYAYANYSAAANKSIKDLAQNGVKVAAGVPVTKESEWTGKNFVPPLKTLYTVQDTYNYNDPTCGEMTFICWPTVAPSSAYVYKGGKKAITGWENTLLVPSLKRGVIFRIKLDPTYSTTYDDAVPMFKSNNRYRDVIASPDGNVLYVLTDTAGNVQKDDGSVTNTLENPGSLIKFTYKAK | 2
soluble glucose dehydrogenase (sGDH) from Acinetobacter calcoaceticus, D143E/Y343F mutant, holo form (enzyme, soluble glucose dehydrogenase (sGDH) of Acinetobacter calcoaceticus, UniProt P13650, with D143E and Y343F; Holo enzyme with PQQ (found cleaved in the crystals) and calcium ions; No tag is named; also called sGDH D143E/Y343F; Y343F/D143E) DVPLTPSQFAKAKSENFDKKVILSNLNKPHALLWGPDNQIWLTERATGKILRVNPESGSVKTVFQVPEIVNDADGQNGLLGFAFHPDFKNNPYIYISGTFKNPKSTDKELPNQTIIRRYTYNKSTDTLEKPVDLLAGLPSSKEHQSGRLVIGPDQKIYYTIGDQGRNQLAYLFLPNQAQHTPTQQELNGKDYHTYMGKVLRLNLDGSIPKDNPSFNGVVSHIYTLGHRNPQGLAFTPNGKLLQSEQGPNSDDEINLIVKGGNYGWPNVAGYKDDSGYAYANYSAAANKSIKDLAQNGVKVAAGVPVTKESEWTGKNFVPPLKTLYTVQDTYNYNDPTCGEMTFICWPTVAPSSAYVYKGGKKAITGWENTLLVPSLKRGVIFRIKLDPTYSTTYDDAVPMFKSNNRYRDVIASPDGNVLYVLTDTAGNVQKDDGSVTNTLENPGSLIKFTYKAK | 2
